These results are taken from article PMC5342261, “Boosting of HIV envelope CD4 binding site antibodies with long variable heavy third complementarity determining region in the randomized double blind RV305 HIV-1 vaccine trial” (PLoS Pathogens, 2017).

The target in assay [1] is AE.A244gp120 (HIV-1). As to the kind of experiment: ELISA; blocking ELISA; AE.A244gp120 on the plate; mAbs diluted 3-fold from 100 ug/mL added for 1 h, wash, biotinylated VRC01 or CH31 for 1 h, streptavidin-HRP. Conditions: both partners purified. On the technique in general: An ELISA detects its analyte on a solid surface through an enzyme-linked reagent.
Assay [2] concerns the target AE.A244gp120 (HIV-1). As to the kind of experiment: SPR. The conditions noted are these: both partners purified.

B1: VRC01 (antibody, V domains shown)
VH: QVQLVQSGGQMKKPGESMRISCRASGYEFIDCTLNWIRLAPGKRPEWMGWLKPRGGAVNYARPLQGRVTMTRDVYSDTAFLELRSLTVDDTAVYFCTRGKNCDYNWDFEHWGRGTPVIVSS
VL: EIVLTQSPGTLSLSPGETAIISCRTSQYGSLAWYQQRPGQAPRLVIYSGSTRAAGIPDRFSGSRWGPDYNLTISNLESGDFGVYYCQQYEFFGQGTKVQVD
notes: also called CD4 bs bnAb VRC01
In the case of B1, in assay [1], the binding result was “binds”.

B2: DH576 Unmutated Common Ancestor (UCA) (antibody, V domains shown)
VH: QVQLVESGGGVVQPGRSLRLSCAASGFTFSSYGMHWVRQAPGKGLEWVAVISYDGSNKYYADSVKGRFTISRDNSKNTLYLQMNSLRAEDTAVYYCARDRARSSGYFGGIYYYYYGMDVWGQGTTVTVSS
VL: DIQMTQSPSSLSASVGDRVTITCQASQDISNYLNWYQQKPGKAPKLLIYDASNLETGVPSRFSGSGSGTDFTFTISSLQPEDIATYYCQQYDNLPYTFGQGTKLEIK
notes: also called DH576 UCA; UCA of DH576; source: recombinantly expressed
B2: the binding result in assay [2] was “binds”.
